Results on four molecules are retold here after patent publication US20220089784A1 (University of California, published 2022).

Test [1] addresses T1, BoNT/C1 holotoxin (Clostridium botulinum, UniProt P18640 2-1291).
T1 sequence: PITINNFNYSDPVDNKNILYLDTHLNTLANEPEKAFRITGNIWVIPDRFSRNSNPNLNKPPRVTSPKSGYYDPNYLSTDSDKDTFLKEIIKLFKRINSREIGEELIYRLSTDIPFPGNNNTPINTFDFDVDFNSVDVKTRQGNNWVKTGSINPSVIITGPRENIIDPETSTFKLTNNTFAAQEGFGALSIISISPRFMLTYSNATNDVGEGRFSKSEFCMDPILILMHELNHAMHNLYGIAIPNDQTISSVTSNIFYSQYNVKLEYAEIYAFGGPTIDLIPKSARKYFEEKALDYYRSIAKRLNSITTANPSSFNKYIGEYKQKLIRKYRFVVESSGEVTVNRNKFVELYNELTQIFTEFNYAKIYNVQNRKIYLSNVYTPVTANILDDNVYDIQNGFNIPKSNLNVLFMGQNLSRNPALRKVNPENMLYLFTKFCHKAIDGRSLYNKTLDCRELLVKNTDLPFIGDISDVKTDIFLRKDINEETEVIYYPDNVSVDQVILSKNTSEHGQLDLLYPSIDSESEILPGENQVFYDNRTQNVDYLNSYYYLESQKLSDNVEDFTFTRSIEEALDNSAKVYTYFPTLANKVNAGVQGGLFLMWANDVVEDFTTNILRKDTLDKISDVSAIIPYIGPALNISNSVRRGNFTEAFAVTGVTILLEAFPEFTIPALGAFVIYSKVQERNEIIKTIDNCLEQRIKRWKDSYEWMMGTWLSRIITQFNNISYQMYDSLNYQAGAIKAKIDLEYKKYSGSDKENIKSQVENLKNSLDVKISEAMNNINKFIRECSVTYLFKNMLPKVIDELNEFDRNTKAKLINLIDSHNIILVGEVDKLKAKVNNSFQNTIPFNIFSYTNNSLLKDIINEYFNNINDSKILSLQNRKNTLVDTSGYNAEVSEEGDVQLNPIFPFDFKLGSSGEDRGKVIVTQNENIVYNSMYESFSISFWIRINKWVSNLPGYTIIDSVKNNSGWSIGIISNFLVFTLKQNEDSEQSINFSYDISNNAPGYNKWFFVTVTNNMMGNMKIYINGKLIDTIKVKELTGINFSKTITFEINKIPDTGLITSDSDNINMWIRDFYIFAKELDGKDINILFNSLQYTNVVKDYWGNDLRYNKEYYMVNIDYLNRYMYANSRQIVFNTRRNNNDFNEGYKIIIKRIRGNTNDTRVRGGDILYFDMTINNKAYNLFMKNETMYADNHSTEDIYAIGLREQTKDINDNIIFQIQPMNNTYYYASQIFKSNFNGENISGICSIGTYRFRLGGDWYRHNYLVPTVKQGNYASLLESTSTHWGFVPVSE
Briefly: yeast scFv FACS.

Test [2] has as its target T2, BoNT/D (Clostridium botulinum, UniProt P19321 2-1276).
T2 sequence: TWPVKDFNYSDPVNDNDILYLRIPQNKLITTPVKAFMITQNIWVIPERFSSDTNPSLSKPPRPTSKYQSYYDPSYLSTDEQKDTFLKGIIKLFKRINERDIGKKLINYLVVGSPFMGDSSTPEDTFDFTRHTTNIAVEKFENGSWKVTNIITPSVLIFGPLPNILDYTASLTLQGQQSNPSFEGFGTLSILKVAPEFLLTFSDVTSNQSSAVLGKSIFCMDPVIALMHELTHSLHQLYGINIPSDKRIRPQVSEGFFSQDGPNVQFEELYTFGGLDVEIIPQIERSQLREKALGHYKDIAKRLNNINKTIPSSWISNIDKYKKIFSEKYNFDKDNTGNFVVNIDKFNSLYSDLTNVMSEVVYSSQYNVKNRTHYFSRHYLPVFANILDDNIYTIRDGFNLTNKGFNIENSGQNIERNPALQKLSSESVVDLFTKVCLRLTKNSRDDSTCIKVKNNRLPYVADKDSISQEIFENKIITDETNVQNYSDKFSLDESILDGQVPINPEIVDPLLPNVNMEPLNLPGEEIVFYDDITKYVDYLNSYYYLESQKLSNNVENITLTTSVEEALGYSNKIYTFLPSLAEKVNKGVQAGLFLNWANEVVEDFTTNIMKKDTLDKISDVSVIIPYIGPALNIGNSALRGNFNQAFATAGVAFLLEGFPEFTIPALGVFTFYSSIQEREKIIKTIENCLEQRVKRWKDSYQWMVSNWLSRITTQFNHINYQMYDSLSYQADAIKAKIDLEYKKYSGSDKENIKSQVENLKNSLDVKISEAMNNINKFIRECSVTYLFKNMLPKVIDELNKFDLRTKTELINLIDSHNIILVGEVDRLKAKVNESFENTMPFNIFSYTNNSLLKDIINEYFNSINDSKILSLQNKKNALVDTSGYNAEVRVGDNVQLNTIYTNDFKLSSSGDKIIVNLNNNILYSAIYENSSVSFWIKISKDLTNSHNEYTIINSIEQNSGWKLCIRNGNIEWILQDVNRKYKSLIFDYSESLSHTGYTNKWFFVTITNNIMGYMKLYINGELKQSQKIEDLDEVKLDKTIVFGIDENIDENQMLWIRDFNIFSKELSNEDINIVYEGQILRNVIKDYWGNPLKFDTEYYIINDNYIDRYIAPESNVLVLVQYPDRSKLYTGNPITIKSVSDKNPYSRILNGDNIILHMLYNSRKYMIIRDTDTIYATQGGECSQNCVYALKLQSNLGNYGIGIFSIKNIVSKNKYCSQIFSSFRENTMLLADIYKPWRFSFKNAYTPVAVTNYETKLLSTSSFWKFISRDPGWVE
Briefly: yeast scFv FACS.

B1: 8DC2 scFv (scFv, V domains shown)
VH: QVQLVQSGAEVKKPGSSVKVSCKTSGGTFRNFAISWVRQAPGQGLEWMGGIIPMFGKGHYAQNFQGRVTITADDSTTTAYMELSSLRYEDTAVYYCARGTRNGSLRDAFDIWGQGTTVTVSS
VL: ASVLTQDPSASGSPGQSVTISCTGTSSDVGGYNYVSWYQQHPGKAPKLMIYDVSNRPSEVPDRFSGSKSGNTASLTVSGLQAEDEADYYCSSYAGSNKRVFGGGTKLTVL
notes: human
B1: the binding result in test [1] is reported as “binds”; in test [2], “no binding (tested: ~1 µM)”.

B2: 4C8 scFv (scFv, V domains shown)
VH: QVQLVESGGGLVQPGRSLRLSCAASGLTLSNYWMNWVRQAPGKGLEWVANIHQDGVEKYYVDSVKGRFTISRDNAKNSLYLQMSSLRAEDTAVYYCARGGKYSNSSAMYQWGQGTLVTVSS
VL: DIVMTQSPSSLAASVGDRVTITCRASQSISGYLNWYQQKPGKAPNLLIYAASSLQSGVPSRFSGSGSGTDFTLTISSLQPDDFASYYCQQSYDIPRTFGQGTKVEIK
notes: human
On to B2, for which the Kd in test [1] is 51.1 nM. Further, in test [2], the binding result was “no binding (tested: ~1 µM)”.

B3: 4C9 scFv (scFv, V domains shown)
VH: QVQLVESGAEVKKPGASVKVSCTASGYTFAGYYMDWVRQAPGQGLEWMGRINPKSGDPNYEQKFQGRVTLTRDKSINTVYMELSRLKSDDTAIYYCARSVSGGAFDLWGRGTLVTVSS
VL: DIVMTQSPSSLSASVGDRVTITCRASQSINSYLNWYQQKPGKVPRLLIYSASSLQSGVPSRFSGSGSGTDFTLTISSLQPDDFATYYCQQYKRYSSFGQGTKVEIK
notes: human
With B3, in test [1], the Kd is 29.6 nM. Moreover, in test [2], the binding result is listed as “no binding (tested: ~1 µM)”.

B4: 8DC3 scFv (scFv, V domains shown)
VH: QVQLVQSGGGLVKPGGSLRLSCAASGFTFSSHSMNWVRQAPGKGLEWVSSISSSSSYIYYADSVKGRFTISRDNSKNSLYLQLNSLRAEDTAVYYCARGDHDFRSGYYGMDVWGQGTMVTVSS
VL: AELTQDPAVSVALGQTVRITCQGDSLRNYYASWYQQKPGQAPVLVIYGKNIRPSGIPDRFSGSSSGNTASLTITGAQAEDEADYYCNSRDSNGNHYVFGTGTKVTVL
notes: human
Take B4: the results for the binding result in test [1] and in test [2] were “no binding (tested: ~1 µM)” and “binds”, respectively.
